Assay results taken from US20030044400A1, “Composition and method for treating cells” (priority 2001, published 2003).
Values joined by “and” are separate entries in the source; they are usually repeats but may differ in a detail not shown here. Equal values may be shown once.

Legend:
LNCaP cells = experiment: Fetuin-induced apoptosis, Hoechst staining confirmed by MTS assay; format: cell-based, Human
Method: The purified fetuin was tested on various cancer cell lines. […] The DNA condensation and breakage of nuclei which are the characteristics for apoptosis were observed by staining the cell with Hoechst dye at 0.1 ug/ml.
Fetuin purified by modified Spiro method was further incubated with Zinc Acetate or Barium Acetate (0.25M) at room temperature for 1 hr. Free ions were removed by repetitive concentration against 20 volumes of PBS three times. Fetuin, Zn-charged fetuin and Ba-charged fetuin (5 uM) and PBS were then separately incubated with LNCaP cells for 4 hr. Percent of cells under apoptosis was determined by Hoechst staining and confirmed by MTS assay. Each data represents the average of two assays. Zn-charged or Ba-charged fetuin may contain free Zn or Ba (about 30 uM). However, all the cell lines are not affected by Zn or Ba alone at all concentrations tested (up to 66 uM).
Various concentrations of Zn-charged fetuin prepared as described were incubated with cell lines for 6 hr. Percent of cell under apoptosis was determined by Hoechst staining and confirmed by MTS assay. The concentration of Zn-charged fetuin for the induction of 50% of cells under apoptosis (LD50) was determined. Each data represents the average of three assays.

[1] = Rabbit Study to Determine the Safety of Fetuin by Intravenous Administration; format: in vivo; parameters: Temp Increase / Wt. Gain Mar. 6, 2000 / Wt. Gain April 6, 2000 / Wt. Gain April 19, 2000 / Mean of Wt.Gain / Globulin / Alanine Transferase / Aspartate Transferase / Mean of ALT / Mean of AST: unit not given here; settings: rabbits; for Temp Increase: monitored 3 hours post injection; for Blood Glucose Level / Mean of blood Glucose level: non-fasting; for Wt. Gain: over 7 week period; for Albumin / Globulin: serum
Method: Rabbits weighing 1.75 to 2.5 kg are used in the study, 2 rabbits/group. The control group receives 1 ml of saline. […] All dilutions are made with sterile pyrogen free saline (0.9%). The study is designed to limit to an acceptable level the risk of a febrile reaction in patients. The animals are given their respective doses of Fetuin at two-day interval for a total of three doses if no reaction occurs. Blood samples are collected for a baseline prior to treatment and then 24-36 hours after the third treatment. At the end of the treatment period, blood is drawn to perform hematology to compare with the baseline levels. The body temperature is recorded for three hours post injection to determine if a febrile reaction is produced. The body temperature is monitored prior to injection (30 min) and then at 30 min interval for three hours. Prior to sacrifice, blood is drawn from each animal to determine the serum level of Fetuin. Organs are examined in all animals. The target organs: spleen, lymph nodes, thymus are examined for evidence of increased size. All tissues excised are preserved in 10% formalin for subsequent histopathology if necessary. Observations made at each dose level are tabulated to see if there is any correlation of symptoms and/or mortality and dose level of the test material. Body weights and necropsy results are recorded. Rabbit body temperature increases for each dose level is reported and conclusions made from the study.

With “Fetuin: Fetal bovine fetuin purified from fetal bovine serum by modified Spiro method; 60 Kd glycoprotein, homologue of alpha 2-HS glycoprotein” the “LD50 of Fetuin-induced Apoptosis” value (LNCaP cells; LNCaP, Zn-charged fetuin, 6 hr, concentration for 50% of cells under apoptosis, average of three assays) was 1 µM, the induction of apoptosis (LNCaP cells; LNCaP, purified fetuin, Hoechst dye 0.1 ug/ml) was “strongly induced apoptosis” and the “apoptotic activity by method of preparation” value (LNCaP cells; Pederson Method (Sigma) vs modified Spiro method) was “induced apoptosis”. The apoptosis-inducing activity (LNCaP cells; Substitution of Zinc by Barium) was “completely abolished”, the “apoptosis-inducing activity in LNCaP cells” value (LNCaP cells; fetal vs mature fetuins at the same concentration) was “strongly induced apoptosis” and the “signs of distress during the test” value [1] was “None of the animals displayed any signs of distress”. The “toxicity, conclusion of rabbit study” value ([1]; iv) was “no toxicity”, the “Alanine Transferase” value ([1]; iv, 65.7 mg/kg) was 54 and 29 and the “Albumin/Globulin Ratio” value ([1]; iv, 65.7 mg/kg) was 13.8 and 11.2. The “Aspartate Transferase” value ([1]; iv, 65.7 mg/kg) was 28 and 32, the “Blood Urea Nitrogen” value ([1]; iv, 65.7 mg/kg) was 21 mg/dL and 24 mg/dL and the “Cholesterol” value ([1]; iv, 65.7 mg/kg) was 69 mg/dL and 71 mg/dL. For the same substance, the “Cholesterol Mean” value ([1]; iv, 65.7 mg/kg) was 70 mg/dL, the Hematocrit ([1]; iv, 65.7 mg/kg) was 37.0% and 40.2% and the “Hematocrit % Mean” value ([1]; iv, 65.7 mg/kg) was 38.6%. The Hemoglobin ([1]; iv, 65.7 mg/kg) was 12.6 g/dL and 13.4 g/dL, the “Hemoglobin Mean” value ([1]; iv, 65.7 mg/kg) was 13.0 g/dL and the “Mean of ALT” value ([1]; iv, 65.7 mg/kg) was 41.5. For the same substance, the “Mean of AST” value ([1]; iv, 65.7 mg/kg) was 30, the “Mean of BUN” value ([1]; iv, 65.7 mg/kg) was 22.5 mg/dL and the “Mean of WBC” value ([1]; iv, 65.7 mg/kg) was 8.5 K/ul. The “Mean of Wt.Gain” value ([1]; iv, 65.7 mg/kg) was 1.14, the “Spleen Wt.” value ([1]; iv, 65.7 mg/kg) was 1.72 g and 1.54 g and the “Spleen Wt. Mean” value ([1]; iv, 65.7 mg/kg) was 1.63 g. The “Thymus Wt.” value ([1]; iv, 65.7 mg/kg) was 5.21 g and 6.56 g, the “Thymus Wt. Mean” value ([1]; iv, 65.7 mg/kg) was 5.85 g and the “Ttl Serum Protn” value ([1]; iv, 65.7 mg/kg) was 5.9 g/dL and 6.1 g/dL. The “WBC, K/ul” value ([1]; iv, 65.7 mg/kg) was 6.9 K/ul and 10.1 K/ul, the “Wt. Gain April 6, 2000” value ([1]; iv, 65.7 mg/kg) was 3.15 and 3.28 and the “Wt. Gain April 19, 2000” value ([1]; iv, 65.7 mg/kg) was 3.65 and 3.72. The “Wt. Gain Mar. 6, 2000” value ([1]; iv, 65.7 mg/kg) was 2.48 and 2.61, the “Temp Increase” value ([1]; iv, 65.7 mg/kg, Apr. 6, 2000) was 0 and the “Temp Increase” value ([1]; iv, 65.7 mg/kg, Mar. 6, 2000) was 0. The “Blood Glucose Level” value ([1]; iv, 65.7 mg/kg) was 94 mg/dL and 88 mg/dL, the “Mean of blood Glucose level” value ([1]; iv, 65.7 mg/kg) was 91 mg/dL and the “Wt. Gain” value ([1]; iv, 65.7 mg/kg) was 1.17 kg and 1.11 kg. For the same substance, the Albumin ([1]; iv, 65.7 mg/kg) was 5.5 and 5.6, the Globulin ([1]; iv, 65.7 mg/kg) was 0.4 and 0.5 and the “Alanine Transferase” value ([1]; iv, 126 mg/kg) was 42 and 32. For the same substance, the “Albumin/Globulin Ratio” value ([1]; iv, 126 mg/kg) was 8.8, the “Aspartate Transferase” value ([1]; iv, 126 mg/kg) was 37 and 66 and the “Blood Urea Nitrogen” value ([1]; iv, 126 mg/kg) was 20 mg/dL and 17 mg/dL. For the same substance, the “Cholesterol” value ([1]; iv, 126 mg/kg) was 66 mg/dL and 49 mg/dL, the “Cholesterol Mean” value ([1]; iv, 126 mg/kg) was 57.5 mg/dL and the Hematocrit ([1]; iv, 126 mg/kg) was 38.2% and 38.6%. For the same substance, the “Hematocrit % Mean” value ([1]; iv, 126 mg/kg) was 38.4%, the Hemoglobin ([1]; iv, 126 mg/kg) was 12.4 g/dL and 12.9 g/dL and the “Hemoglobin Mean” value ([1]; iv, 126 mg/kg) was 12.6 g/dL. For the same substance, the “Mean of ALT” value ([1]; iv, 126 mg/kg) was 37, the “Mean of AST” value ([1]; iv, 126 mg/kg) was 51.5 and the “Mean of BUN” value ([1]; iv, 126 mg/kg) was 18.5 mg/dL. For the same substance, the “Mean of WBC” value ([1]; iv, 126 mg/kg) was 8.1 K/ul, the “Mean of Wt.Gain” value ([1]; iv, 126 mg/kg) was 0.76 and the “Spleen Wt.” value ([1]; iv, 126 mg/kg) was 1.37 g and 1.9 g. For the same substance, the “Spleen Wt. Mean” value ([1]; iv, 126 mg/kg) was 1.43 g, the “Thymus Wt.” value ([1]; iv, 126 mg/kg) was 4.90 g and 5.21 g and the “Thymus Wt. Mean” value ([1]; iv, 126 mg/kg) was 5.05 g. The “Ttl Serum Protn” value ([1]; iv, 126 mg/kg) was 5.9 g/dL, the “WBC, K/ul” value ([1]; iv, 126 mg/kg) was 6.7 K/ul and 9.5 K/ul and the “Wt. Gain April 6, 2000” value ([1]; iv, 126 mg/kg) was 3.31 and 3.10. For the same substance, the “Wt. Gain April 19, 2000” value ([1]; iv, 126 mg/kg) was 3.56 and 3.26, the “Wt. Gain Mar. 6, 2000” value ([1]; iv, 126 mg/kg) was 2.60 and 2.70 and the “Temp Increase” value ([1]; iv, 126 mg/kg, Apr. 6, 2000) was 0. For the same substance, the “Temp Increase” value ([1]; iv, 126 mg/kg, Mar. 6, 2000) was 0, the “Blood Glucose Level” value ([1]; iv, 126 mg/kg) was 221 mg/dL and 123 mg/dL and the “Mean of blood Glucose level” value ([1]; iv, 126 mg/kg) was 172 mg/dL. For the same substance, the “Wt. Gain” value ([1]; iv, 126 mg/kg) was 0.96 kg and 0.56 kg, the Albumin ([1]; iv, 126 mg/kg) was 5.3 and the Globulin ([1]; iv, 126 mg/kg) was 0.6. The “Alanine Transferase” value ([1]; iv, 185 mg/kg) was 49 and 36, the “Albumin/Globulin Ratio” value ([1]; iv, 185 mg/kg) was 5.8 and 10.2 and the “Aspartate Transferase” value ([1]; iv, 185 mg/kg) was 26 and 23. The “Blood Urea Nitrogen” value ([1]; iv, 185 mg/kg) was 19 mg/dL and 22 mg/dL, the “Cholesterol” value ([1]; iv, 185 mg/kg) was 35 mg/dL and 56 mg/dL and the “Cholesterol Mean” value ([1]; iv, 185 mg/kg) was 45.5 mg/dL. The Hematocrit ([1]; iv, 185 mg/kg) was 35.2% and 37.3%, the “Hematocrit % Mean” value ([1]; iv, 185 mg/kg) was 36.3% and the Hemoglobin ([1]; iv, 185 mg/kg) was 11.4 g/dL and 12.3 g/dL. For the same substance, the “Hemoglobin Mean” value ([1]; iv, 185 mg/kg) was 11.8 g/dL, the “Mean of ALT” value ([1]; iv, 185 mg/kg) was 42.5 and the “Mean of AST” value ([1]; iv, 185 mg/kg) was 24.5. The “Mean of BUN” value ([1]; iv, 185 mg/kg) was 20.5 mg/dL, the “Mean of WBC” value ([1]; iv, 185 mg/kg) was 8.75 K/ul and the “Mean of Wt.Gain” value ([1]; iv, 185 mg/kg) was 1.02. For the same substance, the “Spleen Wt.” value ([1]; iv, 185 mg/kg) was 1.71 g and 1.64 g, the “Spleen Wt. Mean” value ([1]; iv, 185 mg/kg) was 1.67 g and the “Thymus Wt.” value ([1]; iv, 185 mg/kg) was 5.26 g and 5.60 g. For the same substance, the “Thymus Wt. Mean” value ([1]; iv, 185 mg/kg) was 5.43 g, the “Ttl Serum Protn” value ([1]; iv, 185 mg/kg) was 6.1 g/dL and 5.6 g/dL and the “WBC, K/ul” value ([1]; iv, 185 mg/kg) was 10.7 K/ul and 6.8 K/ul. The “Wt. Gain April 6, 2000” value ([1]; iv, 185 mg/kg) was 3.19 and 3.26, the “Wt. Gain April 19, 2000” value ([1]; iv, 185 mg/kg) was 3.69 and 3.77 and the “Wt. Gain Mar. 6, 2000” value ([1]; iv, 185 mg/kg) was 2.80 and 2.61. The “Temp Increase” value ([1]; iv, 185 mg/kg, Apr. 6, 2000) was 0, the “Temp Increase” value ([1]; iv, 185 mg/kg, Mar. 6, 2000) was 0 and the “Blood Glucose Level” value ([1]; iv, 185 mg/kg) was 117 mg/dL and 89 mg/dL. The “Mean of blood Glucose level” value ([1]; iv, 185 mg/kg) was 103 mg/dL, the “Wt. Gain” value ([1]; iv, 185 mg/kg) was 0.89 kg and 1.16 kg and the Albumin ([1]; iv, 185 mg/kg) was 5.2 and 5.1. For the same substance, the Globulin ([1]; iv, 185 mg/kg) was 0.9 and 0.5 and the “rectal temperature change over 3 hr post injection” value ([1]; any dosages of Fetuin) was “did not cause body temperature increase”.
